The data set deals with T1, GUN1 (132-918) (Arabidopsis thaliana, UniProt Q9SIC9 132-918).
T1 sequence: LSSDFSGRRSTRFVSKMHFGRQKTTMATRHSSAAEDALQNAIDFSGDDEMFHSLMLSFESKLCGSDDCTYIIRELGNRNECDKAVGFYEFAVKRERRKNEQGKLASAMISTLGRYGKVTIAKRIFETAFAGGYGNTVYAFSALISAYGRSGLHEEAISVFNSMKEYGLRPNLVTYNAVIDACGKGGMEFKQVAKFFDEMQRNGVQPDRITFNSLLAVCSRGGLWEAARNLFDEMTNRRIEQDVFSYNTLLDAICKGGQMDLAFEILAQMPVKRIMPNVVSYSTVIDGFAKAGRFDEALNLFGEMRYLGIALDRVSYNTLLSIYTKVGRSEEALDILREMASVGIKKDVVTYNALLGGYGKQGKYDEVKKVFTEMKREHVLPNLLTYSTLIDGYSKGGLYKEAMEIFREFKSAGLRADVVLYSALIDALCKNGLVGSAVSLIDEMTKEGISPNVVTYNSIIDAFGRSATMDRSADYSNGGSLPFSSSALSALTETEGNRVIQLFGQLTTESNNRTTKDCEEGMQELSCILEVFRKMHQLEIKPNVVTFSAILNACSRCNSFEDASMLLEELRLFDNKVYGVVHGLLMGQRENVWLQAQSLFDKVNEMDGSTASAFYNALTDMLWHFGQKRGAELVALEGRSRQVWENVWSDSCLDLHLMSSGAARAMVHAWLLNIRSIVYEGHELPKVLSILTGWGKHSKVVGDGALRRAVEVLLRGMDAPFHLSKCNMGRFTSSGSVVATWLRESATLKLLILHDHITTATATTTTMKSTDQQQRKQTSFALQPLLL
The data set can be described thus: EMSA. For orientation: A gel shift assay detects complexes by their altered migration in electrophoresis.

The values that follow come from doi:10.1101/2023.09.21.558905.

B1: RNA2 (ssRNA)
RNA: GGACCUCCUUCUCUAUCUCU
Consider B1, for which the binding result is recorded as “no binding”.

B2: RNA3 (ssRNA)
RNA: GGACCGAAUGAUCUAUCUCU
Regarding B2, the binding result is recorded as “no binding”.

B3: RNA1 (psbD BLRP 5'-UTR) (ssRNA)
RNA: GGAAAUCCGUCGAUAUCUCU
Turning to B3, the binding result was “binds”.
